The text below walks through data of article PMC8815872, “A novel dual-labeled small peptide as a multimodal imaging agent for targeting wild-type EGFR in tumors” (PLoS ONE, 2022).

Series [1] relates to EGFR. The conditions noted are these: concentration dependent; cited from earlier work. The source says:
A major drawback of these imaging agents is their large size, which hinders efficient penetration into the targeted tissue and prevents rapid clearance from the non-targeted tissues. Therefore, efforts have been made to reduce the size of the targeting agents. Monoclonal antibody fragments such as Fab′, scFv, Affibody and Nanobody, have been investigated. However, the antibody fragments show reduced binding affinity for their target compared to the parental antibody, and their stability also decreases over time. In the present study, we tried to overcome these drawbacks by utiliz ...

In series [2] the test system is NCI-H460 cells (wtEGFR-positive). Put plainly: Cellular uptake using confocal microscopy, NCI-H460 cells. Conditions: 200 nM, 37°C, 1 h, serum free medium. In kind it is cell-based, human. The protocol: (§1) NCI-H460 and SW620 cells (1 × 10^5 cells) were cultured on the top of a cover-slip slide for 24 h at 37°C. The medium was replaced with fresh serum free medium (500 μL) containing Tc-99m SYPIPDT-ECG-TAMRA (200 nM). Cells were then incubated at 37°C for 1 h. These cells were rinsed three times with phosphate-buffered saline (PBS). The cell were stained with anti-human wtEGFR antibody (cat. 4267S; Cell Signaling Technology, Danvers, MA, USA) and Alexa Fluor® 488-conjugated goat anti-rabbit secondary antibody (cat. 111-545-003, 1:100 dilution; Jackson Immuno Research Inc., West Grove, PA, USA). The slides were covered with fluorescent mounting medium (Dako, Glostrup, Denmark) and closed with cover glasses. The confocal microscopic study was performed with a FV1200 confocal microscope (Olympus, Pittsburgh, PA, USA) with a 100× oil immersion lens.

In series [3] the test system is SW620 cells (wtEGFR-negative). Put plainly: Cellular uptake using confocal microscopy, SW620 cells. Format: cell-based, human. Conditions: 200 nM, 37°C, 1 h, serum free medium. The protocol:
as §1

Series [4] is described as follows: Radiochemical stability in saline. In kind it is physicochemical. Conditions: room temperature, silica capillary column radio-chromatography, mean ± SD, n = 3. The protocol: To evaluate the radiochemical stability of the Tc-99m peptide complex, the labeled complex (0.1 ml) was incubated with 1 ml of saline at room temperature and freshly collected human serum at 37°C. Samples were collected at 30 min and at 1, 3, and 24 h and were analyzed using capillary column with saline (Rf of Tc-99m SYPIPDT-ECG-TAMRA and free pertechnetate = 0.9–1.0; Rf of colloid = 0.0–0.1) and acetone (Rf of free pertechnetate = 0.9–1.0; Rf of Tc-99m SYPIPDT-ECG-TAMRA and colloid = 0.0–0.1) as mobile phases. All experiments were conducted in triplicate (n = 3).

Series [5] relates to NCI-H460 cells (wtEGFR-positive). Put plainly: Saturation binding study, NCI-H460 cells. On the set-up: species or system human. Conditions: 37°C, 1 h. The procedure:
NCI-H460 and SW620 cells were cultured in a humidified atmosphere with 5% carbon dioxide at 37°C. The cells were maintained in Dulbecco modified Eagle medium supplemented with 10% fetal bovine serum, streptomycin (100 μg/ml), and penicillin (100 U/ml). The cells were used for experiments and studies once about 80% confluence had been reached.
The binding affinities of Tc-99m SYPIPDT-ECG-TAMRA for NCI-H460 and SW620 cells were evaluated by saturation binding studies as described previously. Briefly, NCI-H460 and SW620 cells were plated into 96-well plates at a density of 1 × 10^4 cells/well and cultured overnight. Cells were washed twice (5 min each) using ice-cold binding buffer (25 mM HEPES and 1% bovine serum albumin). A concentration gradient (0–2,000 nM) of Tc-99m SYPIPDT-ECG-TAMRA was added to the wells and the cells were maintained at 37°C for 1 h. The total volume of each well was 200 μl. After cells were washed twice using ice-cold binding buffer, the cells of each well were obtained for gamma counting. Radioactivities of collected cells were measured using a 1480 Wizard 3 gamma counter (PerkinElmer Life and Analytical Sciences, Wallingford, CT, USA). The binding affinity value (Kd) was calculated by non-linear regression models of GraphPad Prism software version 5.03 (GraphPad Software, La Jolla, CA, USA). Each data point is the average value of four determinations.

For series [6], the system named is mice bearing NCI-H460 and SW620 tumors. The series can be described thus: Ex vivo fluorescent imaging of excised organs and tumors. The conditions noted are these: excised tumors after in vivo gamma camera imaging, n = 5. The procedure:
Exposure time was 2.0 s per image. The images were analyzed using the dedicated software.

Series [7] concerns NCI-H460 and SW620 tumor tissue. Put plainly: Confocal microscopy with immunohistochemical staining of tumor tissue. Format: in vivo, mice. The conditions noted are these: frozen tumor slices. The procedure:
After the ex vivo imaging study, tumor tissues were snap-frozen in liquid nitrogen. Frozen tumor tissues were cut into slices (10 μm in thickness). After drying at room temperature, slices were fixed with ice-cold acetone for 10 min and then air dried at room temperature for 20 min. Tumor sections were maintained with 5% goat serum for 30 min at room temperature for blocking of nonspecific binding. Then, tumor sections were stained with anti-human wtEGFR antibody (cat. 4267S; Cell Signaling Technology, Danvers, MA, USA) for 1 h at room temperature. After being rinsed with PBS buffer, tumor slides were incubated with Alexa Fluor® 488-conjugated goat anti-rabbit secondary antibody (cat. 111-545-003, 1:100 dilution; Jackson Immuno Research Inc., West Grove, PA, USA). After being washed three times with PBS, tumor slides covered using Prolong® Gold Antifade Reagent with 4’,6-diamidino-2-phenylindole (DAPI; Invitrogen, Carlsbad, CA, USA) and closed with cover glasses. Confocal microscopic study was performed using a FV1200 confocal microscope (Olympus) with a 60× oil immersion lens.

For series [8], the system named is mice bearing NCI-H460 and SW620 tumors.
Method: (§2) Six-week-old female homozygous athymic BALB/c nu/nu mice (weighing 16–18 g) were purchased from Damul Science (Daejeon, Korea) and kept in cages. They were provided free access to food and tap water. After one week of adaptation to laboratory conditions, the mice were subcutaneously inoculated with 1 × 10^7 NCI-H460 (wtEGFR-positive) and SW620 (wtEGFR-negative, as an internal reference) cells (in 0.1 ml PBS) in both sides of the anterior chest region, respectively. The tumors were allowed to grow to about 300 to 400 mm^3 in volume. Tumor volume was calculated using the formula: V (mm^3) = 0.5 × a × b^2, where a and b represent the long and perpendicular short diameters of the tumor by caliper measurements. Approximately 21 days after inoculation, gamma camera imaging and biodistribution studies were performed.
(§3) Following the in vivo gamma camera imaging study, mice were sacrificed by cervical dislocation after anesthesia by intraperitoneal injection of 100 mg/kg bodyweight ketamine (n = 5).
(§4) Tissues of tumors and selected organs were weighed and collected into pre-weighed gamma counter tubes. The radioactivity of the tissues were counted using a gamma counter (1480 Wizard 3; PerkinElmer Life and Analytical Sciences) and counts per minute were decay-corrected. Results are expressed as a percentage injected dose per gram of wet tissue (%ID/g). Total activities injected per animal were calculated by evaluating the difference between pre-injection syringe counts and remaining syringe counts after injection.
Series [9] in a line: in vivo. Conditions: female, athymic BALB/c nu/nu, mouse, total radioactivity, Mean %ID/g (SD).
Method: as §2, §3, §4
Where [10] appears, read: NCI-H460 tumor (wtEGFR-positive).

Read-outs that look alike come from different tables or passages of the source. Where a SMILES comes first, the peptide text is derived from it. The star is where a group is joined. 5TAMRA = CN(C)c1ccc2c(c1)Oc1cc(N(C)C)ccc1C21OC(=O)c2cc(C(=O)*)ccc21

For “SYPIPDT [small 7-mer peptide ligand for wild-type EGFR identified by phage display (Hamzeh-Mivehroud et al.)]”, in series [1], the “diminished the increased EGF-dependent phosphorylation of EGFR” value is on record as 44%.

On to “SYPIPDT-GHEG-ECG-K-tetramethylrhodamine [SYPIPDT-ECG-TAMRA, unlabeled precursor peptide with GHEG linker, ECG chelator and TAMRA dye]”, for which the results for the “fluorescence activity of TAMRA on cells (confocal microscopy)” value in series [2] and in [3] were “strong fluorescence activity” and “barely detectable”, respectively.

On to `CC[C@H](C)[C@H](NC(=O)[C@@H]1CCCN1C(=O)[C@H](Cc1ccc(O)cc1)NC(=O)[C@@H](N)CO)C(=O)N1CCC[C@H]1C(=O)N[C@@H](CC(=O)O)C(=O)N[C@H](C(=O)NCC(=O)N[C@@H](Cc1c[nH]cn1)C(=O)N[C@@H](CCC(=O)O)C(=O)NCC(=O)N[C@@H](CCC(=O)O)C(=O)N[C@@H](CS)C(=O)NCC(=O)N[C@@H](CCCCNC(=O)c1ccc2c(c1)C(=O)OC21c2ccc(N(C)C)cc2Oc2cc(N(C)C)ccc21)C(=O)O)[C@@H](C)O` [Tc-99m SYPIPDT-ECG-TAMRA, Tc-99m SYPIPDT-GHEG-ECG-K-tetramethylrhodamine, metal not drawn] (H-SYPIPDTGHEGECGK(5TAMRA)-OH), for which the “intact percentage incubated in saline” value was 95.1 ± 0.6% in series [4] (30 min, 0.1 ml complex in 1 ml); 94.7 ± 1.3% in [4] (1 h); 93.9 ± 1.1% in [4] (3 h); 92.1 ± 1.4% in [4] (24 h). In addition, the Kd in series [5] (0-2,000 nM, gamma counting, non-linear regression, four determinations per point, read-out: binding affinity value (Kd) for NCI-H460 cells) amounted to 76.5 ± 15.8 nM. In series [5] (NCI-H460 cells), this compound displayed a Bmax of 3652 ± 189 fmol/mg protein. The “fluorescence activity of TAMRA on cells (confocal microscopy)” value in series [2] is reported as “strong fluorescence activity”. Moreover, the “ex vivo fluorescent activity, NCI-H460 tumor versus SW620 tumor” value in [6] was “significantly higher fluorescent activity”. Moreover, the “fluorescence within NCI-H460 tumor tissue (confocal microscopy)” value in [7] (NCI-H460 tumor) is listed as “significant”. Moreover, the “fluorescent activity of TAMRA in SW620 tumor tissue (confocal microscopy)” value in series [7] (SW620 tumor) is given as “barely detected”. The “tumor to normal muscle ratio of the %ID/g values” came out at 2.45 ± 0.22 in series [8] (1 h after injection) and 7.13 ± 2.00 in series [8] (3 h after injection). The tissue uptake at 1 h in [9] (Blood) was found to be 3.22 %ID/g; in [9] (Colon) it was 1.11 %ID/g; in [9] (Heart), 1.43 %ID/g; in series [9] (Kidneys) it was 21.1 %ID/g; in series [9] (Liver), 1.9 %ID/g; in series [9] (Lungs) it was 2.23 %ID/g. For the same compound, the tissue uptake at 1 h was 0.79 %ID/g in [9] (Muscles), 1.91 %ID/g in series [9] (setting [10]), 1.27 %ID/g in series [9] (SW620 tumor (wtEGFR-negative)) and 1.68 %ID/g in series [9] (Stomach). Besides, the tissue uptake at 3 h was found to be 0.87 %ID/g in series [9] (Blood); 0.42 %ID/g in series [9] (Colon); 0.45 %ID/g in series [9] (Heart); 12.4 %ID/g in [9] (Kidneys); 1.07 %ID/g in series [9] (Liver); 0.61 %ID/g in series [9] (Lungs). Besides, the tissue uptake at 3 h in [9] (Muscles) was found to be 0.25 %ID/g; in series [9] (setting [10]), 1.7 %ID/g; in series [9] (SW620 tumor (wtEGFR-negative)) it was 0.54 %ID/g; in series [9] (Stomach), 0.37 %ID/g.
